According to the supplement of paper PMC11316812:
± gives the standard deviation of the averaged measurements.

What was measured:
hTERT-HMEC = test: percentage of EdU-negative (G0-arrested) nuclei per well, 72 h; higher = more G0 arrest; conditions: reference: sequence is the full UniProt precursor, the tested protein was the secreted form or ectodomain
MCF7 = test: as above; conditions: reference: sequence is the full UniProt precursor, the tested protein was the secreted form or ectodomain
[1] = protein concentration 0.0267275 µM
[2] = protein concentration 0.267275 µM
[3] = protein concentration 0.00625 µM
[4] = protein concentration 0.0625 µM
[5] = protein concentration 0.0225 µM
[6] = protein concentration 0.0055 µM
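Further: secreted proteins added to cultured cells, EdU pulse at the end, nuclei found by Hoechst imaging, EdU status from nuclear versus surrounding ring intensity ratio, PBS as neutral control.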

## MRLRRLALFPGVALLLAAARLAAASDVLELTDDNFESRISDTGSAGLMLVEFFAPWCGHCKRLAPEYEAAATRLKGIVPLAKVDCTANTNTCNKYGVSGYPTLKIFRDGEEAGAYDGPRTADGIVSHLKKQAGPASVPLRTEEEFKKFISDKDASIVGFFDDSFSEAHSEFLKAASNLRDNYRFAHTNVESLVNEYDDNGEGIILFRPSHLTNKFEDKTVAYTEQKMTSGKIKKFIQENIFGICPHMTEDNKDLIQGKDLLIAYYDVDYEKNAKGSNYWRNRVMMVAKKFLDAGHKLNFAVASRKTFSHELSDFGLESTAGEIPVVAIRTAKGEKFVMQEEFSRDGKALERFLQDYFDGNLKRYLKSEPIPESNDGPVKVVVAENFDEIVNNENKDVLIEFYAPWCGHCKNLEPKYKELGEKLSKDPNIVIAKMDATANDVPSPYEVRGFPTIYFSPANKKLNPKKYEGGRELSDFISYLQREATNPPVIQEEKPKKKKKAQEDL
hTERT-HMEC; [1]
  percentage of EdU-negative: 5.82 ± 1%
hTERT-HMEC; [2]
  percentage of EdU-negative: 5.84 ± 0.16%
MCF7; [1]
  percentage of EdU-negative: 23.5 ± 0.4%
MCF7; [2]
  percentage of EdU-negative: 26.1 ± 0.34%

## MRLSPAPLKLSRTPALLALALPLAAALAFSDETLDKVPKSEGYCSRILRAQGTRREGYTEFSLRVEGDPDFYKPGTSYRVTLSAAPPSYFRGFTLIALRENREGDKEEDHAGTFQIIDEEETQFMSNCPVAVTESTPRRRTRIQVFWIAPPAGTGCVILKASIVQKRIIYFQDEGSLTKKLCEQDSTFDGVTDKPILDCCACGTAKYRLTFYGNWSEKTHPKDYPRRANHWSAIIGGSHSKNYVLWEYGGYASEGVKQVAELGSPVKMEEEIRQQSDEVLTVIKAKAQWPAWQPLNVRAAPSAEFSVDRTRHLMSFLTMMGPSPDWNVGLSAEDLCTKECGWVQKVVQDLIPWDAGTDSGVTYESPNKPTIPQEKIRPLTSLDHPQSPFYDPEGGSITQVARVVIERIARKGEQCNIVPDNVDDIVADLAPEEKDEDDTPETCIYSNWSPWSACSSSTCDKGKRMRQRMLKAQLDLSVPCPDTQDFQPCMGPGCSDEDGSTCTMSEWITWSPCSISCGMGMRSRERYVKQFPEDGSVCTLPTEETEKCTVNEECSPSSCLMTEWGEWDECSATCGMGMKKRHRMIKMNPADGSMCKAETSQAEKCMMPECHTIPCLLSPWSEWSDCSVTCGKGMRTRQRMLKSLAELGDCNEDLEQVEKCMLPECPIDCELTEWSQWSECNKSCGKGHVIRTRMIQMEPQFGGAPCPETVQRKKCRIRKCLRNPSIQKLRWREARESRRSEQLKEESEGEQFPGCRMRPWTAWSECTKLCGGGIQERYMTVKKRFKSSQFTSCKDKKEIRACNVHPC [Q9HCB6]
hTERT-HMEC; [3]
  percentage of EdU-negative: 4.65 ± 0.17%
hTERT-HMEC; [4]
  percentage of EdU-negative: 6.96 ± 0.65%
MCF7; [3]
  percentage of EdU-negative: 24.6 ± 2.6%
MCF7; [4]
  percentage of EdU-negative: 24.8 ± 1.8%

## MRLSVRRVLLAAGCALVLVLAVQLGQQVLECRAVLAGLRSPRGAMRPEQEELVMVGTNHVEYRYGKAMPLIFVGGVPRSGTTLMRAMLDAHPEVRCGEETRIIPRVLAMRQAWSKSGREKLRLDEAGVTDEVLDAAMQAFILEVIAKHGEPARVLCNKDPFTLKSSVYLSRLFPNSKFLLMVRDGRASVHSMITRKVTIAGFDLSSYRDCLTKWNKAIEVMYAQCMEVGKEKCLPVYYEQLVLHPRRSLKLILDFLGIAWSDAVLHHEDLIGKPGGVSLSKIERSTDQVIKPVNLEALSKWTGHIPGDVVRDMAQIAPMLAQLGYDPYANPPNYGNPDPFVINNTQRVLKGDYKTPANLKGYFQVNQNSTSSHLGSS
hTERT-HMEC; [5]
  percentage of EdU-negative: 5.18 ± 0.23%
hTERT-HMEC; protein concentration 0.225 µM
  percentage of EdU-negative: 36.4 ± 2.8%
MCF7; [5]
  percentage of EdU-negative: 26.7 ± 0.75%
MCF7; protein concentration 0.225 µM
  percentage of EdU-negative: 30.1 ± 1.8%

## MRLSWFRVLTVLSICLSAVATATGAEGKRKLQIGVKKRVDHCPIKSRKGDVLHMHYTGKLEDGTEFDSSLPQNQPFVFSLGTGQVIKGWDQGLLGMCEGEKRKLVIPSELGYGERGAPPKIPGGATLVFEVELLKIERRTEL
hTERT-HMEC; [5]
  percentage of EdU-negative: 4.9 ± 1.4%
hTERT-HMEC; protein concentration 0.225 µM
  percentage of EdU-negative: 6.25 ± 0.1%
MCF7; [5]
  percentage of EdU-negative: 25.5 ± 0.037%
MCF7; protein concentration 0.225 µM
  percentage of EdU-negative: 29.219 ± 0.017%

## MRLTVLCAVCLLPGSLALPLPQEAGGMSELQWEQAQDYLKRFYLYDSETKNANSLEAKLKEMQKFFGLPITGMLNSRVIEIMQKPRCGVPDVAEYSLFPNSPKWTSKVVTYRIVSYTRDLPHITVDRLVSKALNMWGKEIPLHFRKVVWGTADIMIGFARGAHGDSYPFDGPGNTLAHAFAPGTGLGGDAHFDEDERWTDGSSLGINFLYAATHELGHSLGMGHSSDPNAVMYPTYGNGDPQNFKLSQDDIKGIQKLYGKRSNSRKK
hTERT-HMEC; [6]
  percentage of EdU-negative: 5.71 ± 0.72%
hTERT-HMEC; protein concentration 0.055 µM
  percentage of EdU-negative: 15 ± 1.8%
MCF7; [6]
  percentage of EdU-negative: 26.4 ± 1.6%
MCF7; protein concentration 0.055 µM
  percentage of EdU-negative: 29.9 ± 0.45%
